Experimental findings from patent US20100197575A1, “SOLUBLE INTERLEUKIN-20 RECEPTOR” (ZymoGenetics, Inc., published 2010) are described below.

The target of test [1] is IL-20RA/IL-20RB heterodimeric receptor (human).
Test [2] has the same target. This is another data set of the same source.
For test [3] the target is unchanged. The source holds these as a separate data set.
Test [4] shares this target. This is another data set of the same source.
The target is the same in test [5]. This is another data set of the same source.
Test [6] has as its target T1, 125I-labeled IL-20 (Homo sapiens (Human), UniProt Q9NYY1, 125I-labeled).
T1 sequence: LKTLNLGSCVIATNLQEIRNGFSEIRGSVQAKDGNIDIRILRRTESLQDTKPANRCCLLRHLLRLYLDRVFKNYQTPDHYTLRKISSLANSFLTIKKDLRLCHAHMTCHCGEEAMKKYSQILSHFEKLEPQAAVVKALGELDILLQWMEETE
Kind of test: radiolabeled ligand binding to BHK cells stably transfected with IL-20RA and IL-20RB. Here is the method: The specificity and affinity of IL-20 for its receptor was determined using BHK cells stably transfected with IL-20RA, IL-20RB or both receptor subunits. […] Binding of ¹²⁵I-labeled IL-20 was eliminated in the presence of 100-fold excess of unlabeled IL-20 but not with 100-fold excess of the unrelated cytokine, IL-21.

For the molecule “Interleukin-20 (IL-20) (from UniProt Q9NYY1) (ligand)”, in test [1], the half maximal response, proliferation of BaF3 cells co-transfected with IL-20RA and IL-20RB is 3.4 pM; the proliferation of BaF3 cells co-transfected with IL-20RA and IL-20RB was 1.1 pM. In addition, in test [2], the half maximal response, SRE/STAT luciferase reporter in HaCaT cells amounted to 2.3 nM. In test [3], the half-maximal response, luciferase reporter in HaCaT cells, IL-20 in combination with a submaximal dose of IL-1beta worked out at 0.5 nM. Also, the half-maximal response, STAT-luciferase in BHK cells transfected with both receptor subunits in test [4] was 5.7 pM. In test [5], this molecule yielded a half-maximal IL-20 concentration, STAT3 nuclear translocation in HaCaT cells of 7 nM.

B1: IL-20RA/IL-20RB heterodimeric receptor (receptor)
chain 1: VPCVSGGLPKPANITFLSINMKNVLQWTPPEGLQGVKVTYTVQYFIYGQKKWLNKSECRNINRTYCDLSAETSDYEHQYYAKVKAIWGTKCSKWAESGRFYPFLETQIGPPEVALTTDEKSISVVLTAPEKWKRNPEDLPVSMQQIYSNLKYNVSVLNTKSNRTWSQCVTNHTLVLTWLEPNTLYCVHVESFVPGPPRRAQPSEKQCARTLKDQSSEFKAKIIFWYVLPISITVFLFSVMGYSIYRYIHVGKEKHPANLILIYGNEFDKRFFVPAEKIVINFITLNISDDSKISHQDMSLLGKSSDVSSLNDPQPSGNLRPPQEEEEVKHLGYASHLMEIFCDSEENTEGTSFTQQESLSRTIPPDKTVIEYEYDVRTTDICAGPEEQELSLQEEVSTQGTLLESQAALAVLGPQTLQYSYTPQLQDLDPLAQEHTDSEEGPEEEPSTTLVDWDPQTGRLCIPSLSSFDQDSEGCEPSEGDGLGEEGLLSRLYEEPAPDRPPGENETYLMQFMEEWGLYVQMEN
chain 2: DEVAILPAPQNLSVLSTNMKHLLMWSPVIAPGETVYYSVEYQGEYESLYTSHIWIPSSWCSLTEGPECDVTDDITATVPYNLRVRATLGSQTSAWSILKHPFNRNSTILTRPGMEITKDGFHLVIELEDLGPQFEFLVAYWRREPGAEEHVKMVRSGGIPVHLETMEPGAAYCVKAQTFVKAIGRYSAFSQTECVEVQGEAIPLVLALFAFVGFMLILVVVPLFVWKMGRLLQYSCCPVVVLPDTLKITNSPQKLISCRREEVDACATAVMSPEELLRAWIS
As usually defined, the Kd is the constant that tells how readily two partners part at equilibrium. B1: the Kd in test [6] was ~1.5 nM.
